± gives the uncertainty stated by the source.
assay: amyloid nucleation score (Sup35N fusion, yeast selection) (log enrichment); library NNK2; higher = more nucleation; inactive = no reads after selection
Procedure, shortened: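 Peptides of 20 random codons, each fused to Sup35N, were expressed in psi-negative yeast. Cells were induced with 100 μM copper sulfate for 24 hours and grown 7 days at 30°C on medium lacking adenine and uracil, and plasmid inserts before and after selection were Illumina-sequenced. Nucleation scores are DiMSum log enrichments of output over input reads, centred on the mode score of non-aggregating sequences, and sequences under 100 input reads were excluded.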

Row | Substance | amyloid nucleation score
1 | SFNFEVEWRRASNLSFRWGR | 0.039 ± 0.61
2 | SFNNTHVVPMYLFF | 5.402 ± 0.047
3 | SFPRRMPSD | 2.38 ± 0.071
4 | SFRDDICWVRWGSL | 0.251 ± 0.23
5 | SFRDLDAAVEEV | -0.225 ± 0.48
6 | SFRRSE | -0.388 ± 1
7 | SFRTLVP | -0.905 ± 0.63
8 | SFSHGSDAIGNVYCDNIVYK | inactive
9 | SFSRSSAYVVHVLGYLEFRT | -0.004 ± 0.65
10 | SFTFCARNSGLIGWSGDISS | 4.07 ± 0.1
11 | SFVAAEQIMASIEW | 0.706 ± 0.29
12 | SFVVWTPWLSPSYACPRQIF | -0.124 ± 0.76
13 | SFWDRGFNIRQ | 6.145 ± 0.038
14 | SFYRCGLNYCNGTS | 5.94 ± 0.06
15 | SFYVNMSSFFRSLEEV | inactive
16 | SGFEDVHAVVRFLIGVQYGG | -0.515 ± 1.1
17 | SGFII | -1.18 ± 1.1
18 | SGISKTGLYASYWGYLSGGK | -0.453 ± 0.27
19 | SGLFFTHTFRKLVYRLRSTK | -1.08 ± 1.1
20 | SGLGGGFFSIVCYTHISVRE | -0.069 ± 0.55
21 | SGLIY | inactive
22 | SGMGSSYLFQFGSMYAFDDC | 0.636 ± 0.34
23 | SGNIIFNRRMRRAALEWDIT | -0.125 ± 0.63
24 | SGPVERFLILLIRCMNRLYV | -1.19 ± 0.44
25 | SGQRQLCVWCVCVAGGRIKL | 6.54 ± 0.076

Row | Substance | amyloid nucleation score
26 | SGSRVYFQTPN | inactive
27 | SGTDDLCMVPLGYLLTMRLP | 0.7 ± 0.39
28 | SGVAPVIMYCAIVCGGLHM | 8.517 ± 0.067
29 | SGVHNYSARVG | -0.442 ± 0.46
30 | SGWELYP | 1.91 ± 0.11
31 | SHCLNLGDLRVGYKSGM | inactive
32 | SHCTLKNLV | -0.27 ± 1.1
33 | SHFFAQPGNGMRWCVRIKVC | 0.744 ± 0.8
34 | SHLTNDVY | 0.614 ± 0.43
35 | SHSVKVMFNGLRVRL | -0.216 ± 0.63
36 | SHTPLTG | -0.939 ± 1
37 | SIANYGFVLNNHIRFFRSSG | 2.32 ± 0.15
38 | SICVRKYVKFWVWAMNTLFR | -0.174 ± 0.19
39 | SIELNLPMFSIRVKMCSRGE | 2.53 ± 0.15
40 | SIFFC | 2.09 ± 0.09
41 | SIFKSIWDYLIYRSLVSHPH | -0.305 ± 1
42 | SIFLREDVVFSDLLRWFR | 5.572 ± 0.045
43 | SIINLTVPAHPHLNNPLRRQ | 4.76 ± 0.075
44 | SIIYISWSVRHHYVKVG | -0.666 ± 0.46
45 | SIKNHRDREILAMPGVSRSA | inactive
46 | SILCLLNRLTFREYLMVFID | -0.583 ± 0.55
47 | SINIYNFAQVSAFYCGLVEC | 5.45 ± 0.078
48 | SISCSADFVFNCSHGHNTVP | 6.17 ± 0.069
49 | SKDRCEVQLGKFTCLFMFDY | -1.47 ± 0.55
50 | SKFYLKRKSDISYIYASPWR | 1.94 ± 0.06

Row | Substance | amyloid nucleation score
51 | SKHWTCS | 0.426 ± 0.57
52 | SKIVYFSYYTQM | 6.775 ± 0.049
53 | SKLNAHVLAVFRLNEMNNHQ | 3.48 ± 0.056
54 | SKMICPHYK | 5.69 ± 0.071
55 | SKMVDLVVNPQVYCLRRVFW | 2.9 ± 0.078
56 | SKNSYSAHPKL | 4.83 ± 0.06
57 | SKRDGVSSMIM | 4.25 ± 0.069
58 | SKSAPC | 0.39 ± 0.29
59 | SKYGMFILGNRSNGDWFNMV | -0.673 ± 0.48
60 | SKYLCRICDPMHLNLFCRWQ | 4.11 ± 0.059
61 | SLAPQMLPCHFSWILDPCC | -0.01 ± 1
62 | SLAYRFRWKLGNKVKF | 2.02 ± 0.1
63 | SLCLGHYFHGTAYNWVVLYI | 0.213 ± 0.8
64 | SLDFAFRFFSICVICGQNAR | 4.76 ± 0.082
65 | SLDQFSFGC | 0.027 ± 0.65
66 | SLEGLLRPRKLVSCIDT | inactive
67 | SLEGLSCFTLANCLLR | 0.288 ± 0.24
68 | SLEPYMFCSILINFYFFISV | 3 ± 0.14
69 | SLGLGDVWGGQAYRSAGA | 0.2 ± 0.28
70 | SLHLRRYIFNT | 7.339 ± 0.059
71 | SLHVTGWFTSDVVFNLWVDV | -0.145 ± 0.48
72 | SLIFSDPHLVIALNFT | 8.898 ± 0.061
73 | SLIVAIRFTA | 2.5 ± 0.24
74 | SLLGRRIFWLCHEFMSSSLV | 0.21 ± 1
75 | SLLKNPASMCSNSIFCAYVG | 8.708 ± 0.069

Row | Substance | amyloid nucleation score
76 | SLLSWRFVFCCMEYRVFLVV | inactive
77 | SLLVDALR | 0.513 ± 0.39
78 | SLMFKRRK | 0.317 ± 0.28
79 | SLNVVMGAD | -1.15 ± 0.76
80 | SLRMGFTKSVVARGAWRNWV | 4.1 ± 0.057
81 | SLTASCI | -0.471 ± 0.76
82 | SLTFSGMP | inactive
83 | SLVLV | 0.803 ± 0.47
84 | SLVTISFLGLFGSSSALVVA | -0.114 ± 1.1
85 | SLWNIVRCRVENDSSGTQGF | -0.414 ± 0.5
86 | SLWTNTSWSAVVQNNWYGTF | 6.94 ± 0.054
87 | SLYDGRVVRMYSRH | 2.65 ± 0.1
88 | SLYMFLVSALVQSYLLV | -1.4 ± 0.45
89 | SLYVVQYCRSRYLVNCTDRV | 0.129 ± 0.33
90 | SMCGSNAFLDTDRDVRHDDF | -1.05 ± 0.78
91 | SMEVAFSELSKVKRTTCVDY | inactive
92 | SMFSRRNIQKSCFCYWNRLC | -0.418 ± 1.1
93 | SMHGSNVIWESFILRQEHDV | -0.268 ± 0.31
94 | SMISM | 0.947 ± 0.3
95 | SMKHRHSRMVTFGVLV | 0.163 ± 0.28
96 | SMMTVADP | -0.529 ± 0.79
97 | SMRISHTGAQQDLDDCAMRK | 0.635 ± 0.65
98 | SMRVVCYWVLRW | 3.16 ± 0.075
99 | SMTDRFPSIIYRECILWVTW | -0.035 ± 0.76
100 | SMYSSASMQWSDRFNILYEV | -0.291 ± 0.31

Row | Substance | amyloid nucleation score
101 | SMYVN | -0.384 ± 0.56
102 | SNCFNCYLISNWKYVTVSLS | 6.23 ± 0.067
103 | SNDDIEIAKRSHMY | 0.196 ± 0.54
104 | SNEGWIKCWILYFVFGAWMI | -0.896 ± 0.79
105 | SNFCFSTR | 0.328 ± 0.32
106 | SNGKYG | 1.32 ± 0.26
107 | SNGYYSNGPTLLHATTHVTV | -0.431 ± 0.64
108 | SNKTIYKLFRIISPGYFGSS | -1.16 ± 1
109 | SNNMFWFLNYYVGIYMWISP | -1.21 ± 0.75
110 | SNSRKMCDMGKDDNGYKGTH | -0.483 ± 1
111 | SNVLFWI | inactive
112 | SNVSVYPTMWGRVVHRPYTW | 0.032 ± 0.39
113 | SNYGTGDGCCVGV | 1.81 ± 0.099
114 | SPAQCIGVCNRLKLYCST | 0.262 ± 0.45
115 | SPLEKATRFPTWEQCTVASM | 0.405 ± 0.23
116 | SPLHKKVYKRLRLTSDTRQI | -0.516 ± 0.55
117 | SPLVLGFSRK | -1.02 ± 0.76
118 | SPYVRWDKTNLIGWEWYRVE | -0.819 ± 0.43
119 | SQISYEWDATIHQWLCKWFW | 8.355 ± 0.031
120 | SQSNMILYWADRF | 5.33 ± 0.057
121 | SQYFYMFWMSRATITNTIMP | -0.217 ± 0.74
122 | SRACRFTFD | 0.49 ± 0.42
123 | SRAKMVFNFGAWFSRVCKN | 2.42 ± 0.088
124 | SRCGLLMVSPNAVPSGLAHR | 1.18 ± 0.31
125 | SRCIFVFYS | 8.165 ± 0.059

Row | Substance | amyloid nucleation score
126 | SREGLCCNIVYA | -0.45 ± 0.37
127 | SREYHSCKCQMLYMSQWSKG | -0.787 ± 0.55
128 | SRGSSMMQIYFL | 5.995 ± 0.059
129 | SRGVS | -0.433 ± 0.43
130 | SRHTIVTGRWLFRDYQSLLW | 0.19 ± 1.1
131 | SRHVLSKRFRWYT | 0.196 ± 0.26
132 | SRIGVLPDNVDTSAKLAYRL | 6.95 ± 0.078
133 | SRITCKDVMLL | -0.654 ± 0.49
134 | SRKPSILNLRLALVSG | 0.43 ± 0.33
135 | SRLPLTSMTNSHSWA | 0.363 ± 0.43
136 | SRLTS | 2.32 ± 0.066
137 | SRNLGGNYGLGGWCNEEFRR | 0.185 ± 0.65
138 | SRSWTLKFRLGGNVKQYCTW | 5.72 ± 0.091
139 | SRTAWVDLPDCWQVVKFGSV | -0.025 ± 1.1
140 | SRTWEFSFR | 2.5 ± 0.12
141 | SRVDNVSSAPAISAMGVWCG | 1.14 ± 0.38
142 | SRYVPMSFY | 0.125 ± 0.79
143 | SSAWYFSLGTDIAFDAGYSA | -0.108 ± 1.1
144 | SSCVRLDELCAMMSMSWESQ | 1.26 ± 0.38
145 | SSFCNISAAGYFHIVMLRVV | -0.3 ± 0.5
146 | SSFFVAPGSSLLLIRLLCSS | inactive
147 | SSFQEC | -1.2 ± 0.62
148 | SSFVIPSKR | -1.31 ± 0.78
149 | SSFVNRWCEHYNGVVVSWLL | 0.236 ± 0.17
150 | SSGGIDQFGRESISHHWLC | -0.858 ± 0.76

Row | Substance | amyloid nucleation score
151 | SSKRVMKYRCDRWMADTCRK | 0.201 ± 0.8
152 | SSLGIRNCVGTSYVMSPIIV | 0.178 ± 0.53
153 | SSLVWLKMNGNGTKTVFMN | 1.24 ± 0.14
154 | SSNNMEIIYVFFLCREAQKL | -0.78 ± 1.1
155 | SSQCRDVGEAGNHWCLSGSG | 2.8 ± 0.14
156 | SSQGLPDNGTRPLGWKYR | 0.417 ± 0.4
157 | SSQTKYQAFRVQATGVCAWM | -0.123 ± 0.23
158 | SSRCFSVYSDIMYGTFLS | inactive
159 | SSRDKILTSMKIWMLRFLAN | 0.37 ± 0.51
160 | SSSALEANINQSMEDIKEAF | -0.427 ± 1.1
161 | SSSKRNSKDPSGLGLVCVE | 0.795 ± 0.46
162 | SSTHVPLRVFHGEIMWQQIL | -0.291 ± 1.1
163 | SSTKFAHTFVHNKWVYSGFS | 2.46 ± 0.11
164 | SSWSLCIYLINRKKAEYVVI | 0.462 ± 0.53
165 | SSYESLCKIYLNFCQTD | 6.761 ± 0.059
166 | SSYKKYSVVN | -1.59 ± 0.48
167 | SSYPFNDPEMLG | -1.09 ± 0.33
168 | SSYSDLIQLNSNWMWCICLL | 8.101 ± 0.06
169 | STAFFSIIIVFFISTCRETP | -0.78 ± 0.63
170 | STCIMDLSWCKVRRFGSTQV | -0.149 ± 0.79
171 | STCLQD | -0.966 ± 1.1
172 | STKITAESGR | 0.502 ± 0.41
173 | STNEWF | -1.06 ± 0.62
174 | STRCCTRYVCRTAV | -0.158 ± 0.34
175 | STRTSADRSFIIMVWCNIDL | 3.62 ± 0.081
